From IntAct's records for PubMed 28864920

B1: DNA repair protein RAD51 homolog 1 (Homo sapiens), Q06609 (parent)
chain: MAMQMQLEANADTSVEEESFGPQPISRLEQCGINANDVKKLEEAGFHTVEAVAYAPKKELINIKGISEAKADKILAEAAKLVPMGFTTATEFHQRRSEIIQITTGSKELDKLLQGGIETGSITEMFGEFRTGKTQICHTLAVTCQLPIDRGGGEGKAMYIDTEGTFRPERLLAVAERYGLSGSDVLDNVAYARAFNTDHQTQLLYQASAMMVESRYALLIVDSATALYRTDYSGRGELSARQMHLARFLRMLLRLADEFGVAVVITNQVVAQVDGAAMFAADPKKPIGGNIIAHASTTRLYLRKGRGETRICKIYDSPCLPEAEAMFAINADGVGDAKD
partner: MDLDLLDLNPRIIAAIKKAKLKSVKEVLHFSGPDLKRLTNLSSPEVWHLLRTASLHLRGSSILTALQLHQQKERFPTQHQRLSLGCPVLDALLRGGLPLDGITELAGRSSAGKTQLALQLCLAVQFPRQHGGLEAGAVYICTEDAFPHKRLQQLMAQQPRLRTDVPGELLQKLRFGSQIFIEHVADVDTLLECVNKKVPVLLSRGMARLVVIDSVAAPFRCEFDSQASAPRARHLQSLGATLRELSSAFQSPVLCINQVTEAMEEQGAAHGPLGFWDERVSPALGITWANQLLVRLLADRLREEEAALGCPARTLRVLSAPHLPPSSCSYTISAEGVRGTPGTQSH
B2: DNA repair protein XRCC3 (Homo sapiens), O43542 (parent)
chain: B1 partner
B3: DNA repair protein RAD51 homolog 3 (Homo sapiens), O43502 (parent)
chain: MRGKTFRFEMQRDLVSFPLSPAVRVKLVSAGFQTAEELLEVKPSELSKEVGISKAEALETLQIIRRECLTNKPRYAGTSESHKKCTALELLEQEHTQGFIITFCSALDDILGGGVPLMKTTEICGAPGVGKTQLCMQLAVDVQIPECFGGVAGEAVFIDTEGSFMVDRVVDLATACIQHLQLIAEKHKGEEHRKALEDFTLDNILSHIYYFRCRDYTELLAQVYLLPDFLSEHSKVRLVIVDGIAFPFRHDLDDLSLRTRLLNGLAQQMISLANNHRLAVILTNQMTTKIDRNQALLVPALGESWGHAATIRLIFHWDRKQRLATLYKSPSQKECTVLFQIKPQGFRDTVVTSACSLQTEGSLSTRKRSRDPEEEL
partner: B1 partner
B4: DNA repair protein XRCC3 (Homo sapiens), O43542 (parent)
chain: B1 partner
partner: B3 chain
B5: DNA repair protein RAD51 homolog 3 (Homo sapiens), O43502 (parent)
chain: B3 chain
partner: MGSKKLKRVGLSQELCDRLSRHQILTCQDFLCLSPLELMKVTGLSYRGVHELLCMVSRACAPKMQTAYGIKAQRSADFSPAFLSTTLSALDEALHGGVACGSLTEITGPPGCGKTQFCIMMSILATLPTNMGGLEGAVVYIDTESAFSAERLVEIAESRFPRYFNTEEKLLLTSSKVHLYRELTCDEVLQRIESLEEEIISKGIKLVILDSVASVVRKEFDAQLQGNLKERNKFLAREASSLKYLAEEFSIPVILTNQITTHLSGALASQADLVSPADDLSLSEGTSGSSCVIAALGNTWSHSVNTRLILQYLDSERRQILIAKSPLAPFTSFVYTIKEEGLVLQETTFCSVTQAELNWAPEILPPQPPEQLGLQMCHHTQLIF

Variants of: B1
Details: with xrcc3_human XRCC3, O43542

Variant | effect of a mutation on the interaction
A55V | with no effect
A79D | decreasing interaction strength

Variants of: B2
Details: with rad51_human RAD51, Q06609

Variant | effect of a mutation on the interaction
L297P | disrupting interaction strength
V337E | disrupting interaction strength

Variants of: B3
Details: with xrcc3_human XRCC3, O43542

Variant | effect of a mutation on the interaction
C135R | disrupting interaction strength

Variants of: B4
Details: with ra51c_human RAD51C

Variant | effect of a mutation on the interaction
L297P | disrupting interaction strength
V337E | disrupting interaction strength

Variants of: B5
Details: with ra51b_human RAD51B

Variant | effect of a mutation on the interaction
C135R | disrupting interaction strength
